Tests used:
[1] = target: T1, human SEMA4D, full length, on CHO-K1 cells (CHO-K1 hSEMA4D) (human) (UniProt Q92854); assay: FACS, CHO-K1 hSEMA4D cells; Ab 2.67 nM
T1 sequence (looked up): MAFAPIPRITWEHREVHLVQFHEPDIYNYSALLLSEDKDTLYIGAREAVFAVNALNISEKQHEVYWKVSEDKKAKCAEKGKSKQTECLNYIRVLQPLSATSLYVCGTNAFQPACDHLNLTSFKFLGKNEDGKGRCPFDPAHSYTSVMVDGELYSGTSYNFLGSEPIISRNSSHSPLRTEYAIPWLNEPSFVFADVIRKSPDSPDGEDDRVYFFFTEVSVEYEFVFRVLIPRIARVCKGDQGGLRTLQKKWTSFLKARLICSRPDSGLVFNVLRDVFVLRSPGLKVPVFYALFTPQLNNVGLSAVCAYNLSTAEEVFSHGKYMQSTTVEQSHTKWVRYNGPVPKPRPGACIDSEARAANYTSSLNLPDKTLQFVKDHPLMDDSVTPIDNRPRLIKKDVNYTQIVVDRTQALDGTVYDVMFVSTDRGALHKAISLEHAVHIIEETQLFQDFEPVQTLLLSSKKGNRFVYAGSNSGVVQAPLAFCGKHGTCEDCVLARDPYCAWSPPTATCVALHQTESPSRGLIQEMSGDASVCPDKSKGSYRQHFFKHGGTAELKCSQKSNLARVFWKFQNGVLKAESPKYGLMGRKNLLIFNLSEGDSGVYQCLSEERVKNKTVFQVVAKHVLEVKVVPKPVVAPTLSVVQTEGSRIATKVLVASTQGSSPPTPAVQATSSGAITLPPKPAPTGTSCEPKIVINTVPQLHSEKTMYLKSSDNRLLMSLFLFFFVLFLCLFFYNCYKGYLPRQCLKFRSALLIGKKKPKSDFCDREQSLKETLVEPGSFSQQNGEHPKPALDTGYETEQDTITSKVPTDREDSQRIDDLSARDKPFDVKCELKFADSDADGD

[2] = target: T1, human SEMA4D, full length, on CHO-K1 cells (CHO-K1 hSEMA4D) (human); assay: FACS, CHO-K1 hSEMA4D cells; Ab 66.7 nM
[3] = target: monkey SEMA4D, full length, on CHO-K1 cells (CHO-K1 cSEMA4D) (monkey); assay: FACS, CHO-K1 cSEMA4D cells; Ab 13.3 nM
[4] = target: monkey SEMA4D, full length, on CHO-K1 cells (CHO-K1 cSEMA4D) (monkey); assay: FACS, CHO-K1 cSEMA4D cells; Ab 2.67 nM
[5] = target: T1, human SEMA4D, full length, on CHO-K1 cells (CHO-K1 hSEMA4D) (human); assay: FACS, CHO-K1 hSEMA4D cells; Ab 0.534 nM
[6] = target: monkey SEMA4D, full length, on CHO-K1 cells (CHO-K1 cSEMA4D) (monkey); assay: FACS, CHO-K1 cSEMA4D cells; Ab 0.107 nM
[7] = target: monkey SEMA4D, full length, on CHO-K1 cells (CHO-K1 cSEMA4D) (monkey); assay: FACS, CHO-K1 cSEMA4D cells; Ab 0.0213 nM
[8] = target: mouse SEMA4D, full length, on CHO-K1 cells (CHO-K1 mSEMA4D) (mouse) (UniProt O09126); assay: FACS, CHO-K1 mSEMA4D cells; Ab 0.0213 nM
[9] = target: T1, human SEMA4D, full length, on CHO-K1 cells (CHO-K1 hSEMA4D) (human); assay: FACS, CHO-K1 hSEMA4D cells; Ab 0.000853 nM
[10] = target: monkey SEMA4D, full length, on CHO-K1 cells (CHO-K1 cSEMA4D) (monkey); assay: FACS, CHO-K1 cSEMA4D cells; Ab 0.000853 nM
[11] = target: mouse SEMA4D, full length, on CHO-K1 cells (CHO-K1 mSEMA4D) (mouse) (UniProt O09126); assay: FACS, CHO-K1 mSEMA4D cells; Ab 0.000853 nM
[12] = target: T2, biotinylated hSEMA4D ECD-His (human) (UniProt Q92854); assay: FACS, blocking of biotinylated hSEMA4D ECD-His binding to 293F hPlexin B1 cells; Ab 13.3 nM
T2 sequence (chain, biotinylated with Biotin-X-X-NHS at a molar ratio of 8,1; sites not stated): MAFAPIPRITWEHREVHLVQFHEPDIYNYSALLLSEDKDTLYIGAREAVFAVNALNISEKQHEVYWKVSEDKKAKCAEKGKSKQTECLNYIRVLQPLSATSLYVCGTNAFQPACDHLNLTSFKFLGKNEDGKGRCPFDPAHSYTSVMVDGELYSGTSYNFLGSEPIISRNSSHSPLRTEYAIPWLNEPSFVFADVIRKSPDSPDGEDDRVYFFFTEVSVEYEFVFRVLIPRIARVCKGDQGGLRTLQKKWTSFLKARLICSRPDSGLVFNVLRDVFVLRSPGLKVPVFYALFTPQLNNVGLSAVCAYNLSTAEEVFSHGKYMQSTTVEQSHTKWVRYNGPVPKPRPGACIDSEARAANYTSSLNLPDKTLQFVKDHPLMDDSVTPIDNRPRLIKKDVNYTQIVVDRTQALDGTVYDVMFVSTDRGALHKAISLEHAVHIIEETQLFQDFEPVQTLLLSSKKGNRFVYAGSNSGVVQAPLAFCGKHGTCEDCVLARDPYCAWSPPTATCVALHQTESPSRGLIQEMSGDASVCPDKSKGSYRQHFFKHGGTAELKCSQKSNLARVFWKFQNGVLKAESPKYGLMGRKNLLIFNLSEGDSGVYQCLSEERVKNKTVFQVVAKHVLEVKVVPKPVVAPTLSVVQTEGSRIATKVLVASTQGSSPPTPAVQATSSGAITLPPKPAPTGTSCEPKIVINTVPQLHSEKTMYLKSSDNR

[13] = target: T2, biotinylated hSEMA4D ECD-His (human); assay: FACS, blocking of biotinylated hSEMA4D ECD-His binding to 293F hPlexin B1 cells; Ab 2.67 nM
[14] = target: T2, biotinylated hSEMA4D ECD-His (human); assay: FACS, blocking of biotinylated hSEMA4D ECD-His binding to 293F hPlexin B1 cells; Ab 0.107 nM
[15] = target: T2, biotinylated hSEMA4D ECD-His (human); assay: FACS, blocking of biotinylated hSEMA4D ECD-His binding to 293F hPlexin B1 cells; Ab 0.534 nM

| Substance | MFI [1] | MFI [2] | MFI [3] | MFI [4] | MFI [5] | MFI [6] | MFI [7] | MFI [8] | MFI [9] | MFI [10] | MFI [11] | MFI (residual ligand binding) [12] | MFI (residual ligand binding) [13] | MFI (residual ligand binding) [14] | MFI (residual ligand binding) [15] |
| --- | --- | --- | --- | --- | --- | --- | --- | --- | --- | --- | --- | --- | --- | --- | --- |
| Mouse IgG control (antibody) | 35.6 | 214 | 65.6 | 37.8 | 36.5 | 25.4 | 23.1 | 30.5 | 35.5 | 22.9 | 29.8 | 474 | 470 | 473 | 472 |
| Human IgG control (antibody) | 35.9 | – | 86.7 | 33.3 | 37.4 | 31.6 | 31.6 | 24.1 | 37.2 | 31.6 | 25 | 331 | 338 | 364 | 341 |
